From FireProtDB (doi:10.1016/j.jmb.2009.11.038) come the findings set out here.

For this data set the following is noted: Homo sapiens, pH 7.5, Fluorescence, Sodium phosphate 20mM, transition: 2, whole UniProt chain shown.

B1: wild type, Q5NV88 (protein)
chain: NFMLTQPHSVSESPGKTVTISCTRSSGSIASNYVQWYQQRPGSSPTTVIYEDNQRPSGVPDRFSGSIDSSSNSASLTISGLKTEDEADYYCQSYDSSN
For the protein B1, where the note is “25 °C, GdnHCl”, the “denaturant midpoint (higher = more stable)” value is 1.41 M and the unfolding free energy amounted to 5.1 kcal/mol. Under “Thermal”, the Tm stood at 49.9 °C, the “unfolding enthalpy (calorimetric)” value came out at 86.2 kcal/mol and the unfolding free energy was 5.2 kcal/mol.
